{
  "source": "paper PMC5648539",
  "biological_target": "FLAG-tagged human CXCR4, wild type (human) (UniProt P61073)",
  "sequence (P61073 whole entry)": "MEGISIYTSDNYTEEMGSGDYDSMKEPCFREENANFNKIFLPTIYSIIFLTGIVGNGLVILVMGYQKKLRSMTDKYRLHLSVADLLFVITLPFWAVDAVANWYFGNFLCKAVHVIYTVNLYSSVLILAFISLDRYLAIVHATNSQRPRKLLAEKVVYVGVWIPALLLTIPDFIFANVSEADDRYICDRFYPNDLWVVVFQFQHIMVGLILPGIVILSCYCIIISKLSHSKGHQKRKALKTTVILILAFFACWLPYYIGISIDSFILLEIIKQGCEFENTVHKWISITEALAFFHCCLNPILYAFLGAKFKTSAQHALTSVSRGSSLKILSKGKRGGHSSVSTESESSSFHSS",
  "data": [
    {"substance": "CXCL12 with Asn33 mutated to glutamic acid (from UniProt P48061-2 22-89) (ligand)", "values": [
      {"measurement": "Ca2+ flux dose response (printed as Kd)", "result": 21, "unit": "nM"}
    ]},
    {"substance": "CXCL12(R8A) (from UniProt P48061-2 22-89) (ligand)", "values": [
      {"measurement": "Ca2+ flux response (potency)", "result": 110, "unit": "nM"}
    ]},
    {"substance": "CXCL12(R12A) (from UniProt P48061-2 22-89) (ligand)", "values": [
      {"measurement": "Ca2+ flux response (potency)", "result": 95, "unit": "nM"}
    ]}
  ]
}
